The values below are quoted from earlier work in article PMC6704634.

This series concerns the target EGFR isoform I (Homo sapiens) (UniProt P00533).

For EGF (from UniProt P01133), the Kd is 177 nM.

Broadly, the Kd is the constant that tells how readily two partners part at equilibrium.
